Experiment: yeast display, Sf9 membrane polyspecificity reagent, FACS + sequencing; frameworks hold sequencing errors
Method in brief: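 A nanobody's polyreactivity label depends on the gate it was sorted from. Yeast display cells were stained with 10% biotinylated, detergent-solubilized Sf9 membrane reagent for 1 hour at 4 °C, enriched on streptavidin microbeads and sorted by FACS. The low and high (top ~1%) gates were set on anti-HA fluorescence for expression and streptavidin fluorescence for reagent binding.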

Sequence | polyreactivity (PSR sort gate)
QVQHVESGGGLVQAGGSLRLSCAASGFIFSWNAMGWYRQAPGKERELVAGISWSGGSTYYADSVKGRFTISRDNAKNTVYLQMNRLKPEDTAVYYCAKEPSVGTGGVYRYGRGDYWGQGTQVTVSS | low polyreactivity
QVQHVESGGGLVQAGGSLRLSCAASGFTFATYAMGWYRQAQGKERELVAAISRGTSTYYADSVKGRFTISRVNAKNTVYLQMNSLIPDDTAVYYCAATSSFRYDYWGKGTQVTVSS | low polyreactivity
QVQHVESGGGLVQAGGSLRLSCAASGFTFGYYAMGWYRQAPGKERELVAAISGSGGGTYYADSVKGRFTISRDNAKNTVYLQMNSLKPEDTAVYYCNTGRYDRKYDYWGQGTQVTVSS | high polyreactivity
QVQHVESGGGLVQAGGSLRLSCAASGFTFPGYAMGWYRQAPGKERELVAAISSSGGRTNYADSVKGRFTISRDNAKNTVYLQMNSLKPEDTAVYYCKAVRTVRSYLQLTRHLVYWGQGTQVTVSS | high polyreactivity
QVQHVESGGGLVQAGGSLRLSCAASGFTFRHNAMGWYRQAPGKERELVAAMTKSGRRTYDADSVKGRFTISRDNAKNTVYLQMNSLKPEDTAVYYCKKDLRQSYANVDYWGQGTQVTVSS | high polyreactivity
QVQHVESGGGLVQAGGSLRLSCAASGFTFRRYAMGWYRQAPGKERELVAAISINGGSTYYADSVKGRFTISRDNAMNTVYLQMNSLKPEDTAVYYCNKGSVRGEYDYWGQGTLVTVSS | high polyreactivity
QVQHVESGGGLVQAGGSLRLSCAASGFTFSVYVLGWSRQAPGKERELVAAITWSGGSTYYADSEQGRITISRDHAKNTVYLQMNSQKPQETAVYYCAAQAFSPHYGWFYYWGQGTQVTVSS | high polyreactivity
QVQHVESGGGLVQAGGSLRLSCAASGFTSTVYAMGCYRQAPGKERELVASITWSGGRTYYADSVKGRFTISRDNAKNTVYFQMNSLKPEDTAVYYCAARTYSYGSILKYYYWGQGSQVTVSS | high polyreactivity
QVQHVESGGGLVQAGGSLRLSCAASGGIFYYNTMGWYRQAPGKERELVAAITGGGRTNYADSVKGRFTISRDNAKNTVYLQMNSLKPEDTAVYYCNAVYWRTRMDYWGQGTQVTVSS | high polyreactivity
QVQHVESGGGLVQAGGSLRLSCAASGGTFYGYAMGCYRQAPGKERELVAVITYSGGSTYYADSVKGRFTISRDNAKNTVYLQMYSLKPEDTAVYYCAADVKYGYDWGQGTQVTVSS | high polyreactivity
QVQHVESGGGLVQAGGSLRLSCAASGIIFGHYDMGWYRQAPGKERELVAAITFTGDSTYYADSVKGRFTISRDNAKITVYLQMNSLKPEDTAVYFCAADTPVPWGSWGYDYWGQGTQVTVSS | low polyreactivity
QVQHVESGGGLVQAGGSLRLSCAASGITFNEYAMGWYRQAPGKEREFVAAISSSGARTYYADSVKGRFTISRDNAKNTVYLQMNSLKPEDTAVYYCAAVYRSWTSYNGRNYWGQGTQVTVSS | high polyreactivity
QVQHVESGGGLVQAGGSLRLSCAASGITFSSYAMGWYRQAPGKERELVAAISSGGSTYYADSVKGRFTISRDNAKNTVYFQMNSLKPEDTAVYYCAAELATYVPNKWYYRYTGYYYWGQGTQVTVSS | low polyreactivity
QVQHVESGGGLVQAGGSLRLSCAASGIYYNAMGWYRQAPGKERELVAVITYSGGSTYYADSVKGRFTISRDNAKNTVYLQMNSLKPEETAVYYCAADDYYVALPGLYDYWGQGTQVTVSS | low polyreactivity
QVQHVESGGGLVQAGGSLRLSCAASGLTFSTYDMGWYRQAPGKERDLVAAITYSGGSTYYADSVKGRFTISRDHAKNTVYLQMNSLKPEDTAVYYSATTWYFVASWYVAIYDYWGQGTQVTVST | low polyreactivity
QVQHVESGGGLVQAGGSLRLSCAASGLTIWYYAIGWYRQAPGKEREFVAAITSRGGDTYYADSVKGRFTISRDNAKNTVYLQLNSLKPEDTGVYYCAVRPRYYGTYRYYYWGQGTQVTVSS | high polyreactivity
QVQHVESGGGLVQAGGSLRLSCAASGRIFGTYAMGWYRPAPGKERELVAAISWRGGSTYYADSVKGRFTISRDNAKNTVYLQMNSLKPEDTAVYYCAATWWSPSRGTKGDYWGQGTQVTVSS | low polyreactivity
QVQHVESGGGLVQAGGSLRLSCAASGRIFQRNTMGWYRQAPGKERELVARINYSGGSTYYADSVKGRFTISRDNAKTTVYLQLNSLKPEDTAVYYCAARVWTWSIYYPAGLSSYDYWGQGTQVTVSS | low polyreactivity
QVQHVESGGGLVQAGGSLRLSCAASGRIFSFYVMGWYRQAPGKERELVAVIRKNGGSTYYADSVKGRFTISRDNAKNTVYLQMNSLKPEDTAVYYCTARSVPRYGYWGLGTQVTVSS | high polyreactivity
QVQHVESGGGLVQAGGSLRLSCAASGRIFVAYTMGWYRQAPGKERELVAGISRSGGSTYYADSVKGRFTISRDNAKNTVYLQMNNLKPEDTAVYYCAVGNWRLFPYGYWGQGTQVTVSS | high polyreactivity
QVQHVESGGGLVQAGGSLRLSCAASGRIFYLNAMGWYRQAPGKERELVAAISRVGRTNYADSVKGRFTISRDNAKNTVYLQMNSLKPEDTAVYYCAAVYYSVNGRHGYWGQGTQVTVSS | high polyreactivity

Sequence | polyreactivity (PSR sort gate)
QVQHVESGGGLVQAGGSLRLSCAASGRIIRRNARGSYRLAPGKERELVAAISWSGGSTYYADSVKGRFTISRDNAKNSVDLQMNSLKQEDTAVYYCAAVPCYTGDYWGQGTQVTVSS | low polyreactivity
QVQHVESGGGLVQAGGSLRLSCAASGRIYRKAMGWYRQAPGKERELVAVITRGGSTNYADSVKGRFTISRDNAKNSVYLQMNSLKPEDTAVYYCAATYSYRFSSFDYWGQGTQVTVSS | high polyreactivity
QVQHVESGGGLVQAGGSLRLSCAASGRTFAQYTMGWYRQAPGKERELVAGIDWSGGNTYYADSVKGRFTISRDNAKNTVYLQMNSLKPVDTAVYYCAAVPAFYNAWGEDYEYWGQGTQVTVSS | low polyreactivity
QVQHVESGGGLVQAGGSLRLSCAASGRTFGSNAMGWYRQAPGKERELVAAISLRGGRTYYADSVKGRFTISRDNAKNTVYLLMNSLKPEDTAVYYCNAVHYLYGARSRLTYDYWGQGTQVTVSS | high polyreactivity
QVQHVESGGGLVQAGGSLRLSCAASGRTFPPYDMGWYRQAPGKERELVAAITSDGSTSYADSVKGRFTISRDNAKNTVYLQMNSLKPEDTAVYYCAAYRWYSAARMGYWGQGTQVTVSS | high polyreactivity
QVQHVESGGGLVQAGGSLRLSCAASGRTFRLYAMGRYRMAPGKERELVAAITRGGRTNYADSVKGRFTISRDNAKNTVYLQMNSLKPEDTAVYYCAVAGFDRGQYVRYYYWGQGTQVTVSS | low polyreactivity
QVQHVESGGGLVQAGGSLRLSCAASGRTIIKYAMGWYRQAPGKERELVAAISRSAGSTYYADSVKGRFTISRDNAKNTVYLQMNSLKPEDTAVYYCNAVTSSYLRFDYWGQGTQVTVSS | high polyreactivity
QVQHVESGGGLVQAGGSLRLSCAASGRTITNYVMGWYRQSPGKEREFVATITARGGSTNYADSVKGRFTISRDNAKNTVYLQMNSLKPEDTAVYYCAAGRRFTVAYGYFYWGQGTQVTVSS | high polyreactivity
QVQHVESGGGLVQAGGSLRLSCAASGRTTYTNARGWYRQAPGKERELVASISWRGGSSYYADSVKGRFTISRDNAKNTVYLQMNSLIPEDTAVYYCAASWPRWWRFGYWGQGTQVTVSS | low polyreactivity
QVQHVESGGGLVQAGGSLRLSCAASGRTYGYYAMGWYRQAPGKERELVAAITRTGGSTHYADSVKGRFTISRDNAKNTVYLQMNSLKPEDTAVYYFARTSRHVRYDYWGEGTQVTVSS | low polyreactivity
QVQHVESGGGLVQAGGSLRLSCAASGSIFLVYAMGWYRLAPGKERELVAAISNSGSTNYADSVKGRFTISRDNAKNTVYLQMNSLKPEDTAVYYCAKDSLVDHVGGYDYWGHGTQVTVSS | low polyreactivity
QVQHVESGGGLVQAGGSLRLSCAASGSIFQKNAMGWYRKAPGKERELVAVITRGGTSTYYADSVKGRFTISRDNAKNTVYLQMNSLKPEDTAVYYCAAKADKRLDYWGQGTQVTVSS | low polyreactivity
QVQHVESGGGLVQAGGSLRLSCAASGSIFSHYAMGWYRQEPGKERELVATITWRGGSNTNYADSVKGRFTISRDNAKNTVYLQMNSLKPEDTAVYYCNAAFPYHYRFDYWGQGTQVTVSS | low polyreactivity
QVQHVESGGGLVQAGGSLRLSCAASGSIFTVNAMGWYRQAPGKERELVAAIDGSSGSTNYADSVKGRFTISRDNAKNTVYLQMNSLKPEDTAVYYCAADWSYEYGYWGQGTQVTVSS | low polyreactivity
QVQHVESGGGLVQAGGSLRLSCAASGSIFVPYALGWSRQAPGKEREFVAVISLRGSRTYYADSVKGRFTISRDNAKNTVYLQMNSLKPEDTAVYYCATTGYRLRQATRYDYRGQGTQVTVSS | high polyreactivity
QVQHVESGGGLVQAGGSLRLSCAASGSIFWYYAKGWYRQAPGKERELVATITSGGSTSYADSVKGRFTISRDNAKNPVYLQMNSLKPEDTAVYYCAAARLFTTYDWGQGTQVTVSS | low polyreactivity
QVQHVESGGGLVQAGGSLRLSCAASGSIFYDYAMGWYRQAPGKERELVAAISKSDGSTYYADSVKGRFTISRDNAKNTVYLQMNSLKPEDTAVYYCNADLIYSYPPEYDYWGQGTQVTVSS | high polyreactivity
QVQHVESGGGLVQAGGSLRLSCAASGSISPQNVMGWYRQAPGKERELVAAITGGGYTNYADSVKGRFTISRDNANNTVYLQMNSLKPEDTAVYYCNADYFQDRLDYWGQGTQVTVSS | low polyreactivity
QVQHVESGGGLVQAGGSLRLSCAASGSNSAYAMGWYRQAPGKERELVAAINSGGSTTYADSVKGRFTISRDNAKNTVYLQMNSLKPEDTAVYSCAARAPSFRYGTSNYPAYRLDYWGQGTQVTVSS | high polyreactivity
QVQHVESGGGLVQAGGSLRLSCAASGSTFDGYAMGWYRQAPGKERELVAAISRSGGRTYYADSVKGRFTISRDNAKNTVYLQMTSLKPEDTAVYYCAALYPYKREDYWGQGTQVTVSS | high polyreactivity
